Measured values published in patent US20120238038, “PEPTIDE BINDING TO METHYLATED DNA” (published 2012).

B1: methylated target DNA (dsDNA)
DNA 1: GGGGCGGGGCC
DNA 2: GGCCCCGCCCC
modifications: 5mC at position 5 of G chain and position 6 of C chain
B2: unmethylated target DNA (dsDNA)
DNA 1: GGGGCGGGGCC
DNA 2: GGCCCCGCCCC

Target: peptide F (two-zinc-finger peptide, X = phenylalanine) (Artificial Sequence)
Test: EMSA; 100 uM ZnCl2, 100 mM NaCl, 4 C
Conditions: protein: synthetic; tags: none; chemically synthesized (Fmoc SPPS), C-terminal amide; label: 5'-32P on G chain
Procedure: These bands obtained on the gel were quantified using Image Gauge software (FUJIFILM Corporation, ver. 4.01). The ratio of DNA bound to the peptide ([bound]/[bound]+[free]) was calculated from the band intensity at each peptide concentration; using this and the concentration of the peptide, the dissociation constant between the peptide and the DNA was calculated from the calculation equation (2) below.

peptide F (two-zinc-finger peptide, X = phenylalanine) (Artificial Sequence), sequence (chain, as listed by the source): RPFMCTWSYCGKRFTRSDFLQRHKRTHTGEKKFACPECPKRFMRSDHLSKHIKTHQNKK

Row | Binder | Kd [µM]
1 | B1 | 5.58
2 | B2 | 2.1
